Patent publication US20210139581A1 (Alector, published 2021)
Substitutions are numbered along the chain they refer to. Like-named read-outs stand apart in the source and are kept apart here.

B1: AB-63.4 (antibody, V domains shown)
VH: QVQLVQSGAEVKKPGASVKVSCKASGYTFTDYNYHWVRQAPGQGLEWIGFIYPSNGITGYAQKFQGRVTMTVDTSTSTVYMELSSLRSEDTAVYYCARSTVDYFDYWGQGTLVTVSS
VL: DIVLTQSPDSLAVSLGERATINCRASQSVSTSTYSYMHWYQQKPGQPPKLLIKYASNLESGVPDRFSGSGSGTDFTLTISSLQAEDVAVYYCQHSWEIPLTFGQGTKLEIK
B2: AB-H64 (antibody, V domains shown)
VH: B1 VH with V20I, Y34L, V68A, M70L, T74N, V79A, V113L
VL: B1 VL
notes: Humanized variant of murine 2F5.1; also called parental humanized antibody
B3: AB-64.1 (antibody, V domains shown)
VH: B1 VH with V20I, Y34L, V68A, M70L, T74N, V79A, T100D, V113L
VL: B1 VL
B4: AB-64.1.2 (antibody, V domains shown)
VH: B1 VH with V20I, Y34L, G56R, V68A, M70L, T74N, V79A, T100D, V113L
VL: B1 VL
notes: Variant of AB-64.1
B5: AB-63.6 (antibody, V domains shown)
VH: B1 VH with Y34L
VL: B1 VL with S28D
B6: AB-64.1.8 (antibody, V domains shown)
VH: B1 VH with V20I, Y34L, G56Q, V68A, M70L, T74N, T76A, V79A, T100D, V113L
VL: B1 VL
notes: Variant of AB-64.1
B7: AB-63.5 (antibody, V domains shown)
VH: B1 VH with Y34N, T100D
VL: B1 VL
B8: Chimeric Ab (antibody, V domains shown)
VH: EVQLQQSGPELVKPGASVKISCKASGYTFTDYNLHWVKLSHGKSLEWIGFIYPSNGITGYNQKFKNKATLTVDNSSSTAYMELRSLTSEDSAVYYCARSTVDYFDYWGQGTTLTVSS
VL: DIVLTQSPASLAVSLGQRATMSCRASQSVSTSTYSYMHWYQQKPGQPPKLLIKYASNLESGVPARFSGSGSGTDFTLNIHPVEEEDTATYYCQHSWEIPLTFGAGTKLELK
notes: Chimeric antibody with the variable regions of murine 2F5.1; also called parental antibody; comparator antibody

Key:
[1] = target: T1, human CD33 on primary human monocyte-derived dendritic cells (human, UniProt P20138 18-364); experiment: cell-based or functional assay
human CD33 [2] = target: T2, human CD33 (human, UniProt P20138 18-259, limits assumed); experiment: BLI (ForteBio), Fab 100 nM on immobilized CD33
T2 construct: Human CD33 immobilized on the BLI sensor tip or the BIAcore C1 chip; also called Siglec-3

human CD33 [3] = target: T2, human CD33; experiment: BLI (ForteBio), Fab 100 nM on immobilized CD33; kon/koff columns printed 3 rows too low, assigned by koff/kon = printed KD of AB-63.4
Procedure: (§1) The affinities (KD) of the humanized antibodies for human CD33 were measured for each antibody by BioLayer Interferometry in a ForteBio assay according to standard techniques (Estep et al. (2013) MAbs 5(2): 270-8). […] The assay was carried out at room temperature.
(§2) The affinities of AB-H14 and its affinity-matured variants (Table 15) and AB-H63 and its affinity-matured variants (Table 16), for human CD33 were measured by Fortebio assay according to the method described in Example 1 above.

human CD33 [4] = target: T2, human CD33; experiment: SPR (BIAcore), Fab over CD33 on C1 chip
[5] = target: T1, human CD33 on primary human …; experiment: cell-based or functional assay; remark: listed apart in the source
[6] = target: T1, human CD33 on primary human …; experiment: cell-based or functional assay; remark: listed apart in the source
[7] = target: T1, human CD33 on primary human …; experiment: cell-based or functional assay; remark: listed apart in the source
[8] = target: T1, human CD33 on primary human …; experiment: cell-based or functional assay; remark: listed apart in the source
human CD33 [9] = target: T2, human CD33; experiment: SPR (BIAcore), Fab over CD33 on C1 chip; remark: listed apart in the source
Procedure: The affinity parameters for 10 of the 88 humanized antibodies (AB-H1, AB-H3, AB-H6, AB-H11, AB-H22, AB-H24, AB-H26, AB-H63, AB-H64, and AB-H71) were measured in a separate experiment by a more sensitive technique, surface plasmon resonance (BIAcore), and compared to Chimeric Ab and Chimeric Ab #2. BIAcore measurements were performed as follows: human CD33 was immobilized on the surface of a C1 chip, and Fabs were injected for 300 s to monitor association, followed by a 900 s flow in running buffer to monitor dissociation. The Fabs were measured at 5 concentrations: a high concentration of 27 nM and 3-fold serial dilutions.
In a separate experiment, as determined by the more sensitive BIAcore technique, affinity parameters of affinity matured antibodies derived from the humanized antibody AB-H64 were measured and were directly compared to that of the Chimeric Ab, according to the method described in Example 1 above.

human CD33 [10] = target: T2, human CD33; experiment: BLI (ForteBio), Fab 100 nM on immobilized CD33; remark: listed apart in the source
Procedure: as §1

human CD33 [11] = target: T2, human CD33; experiment: BLI (ForteBio), Fab 100 nM on immobilized CD33; remark: listed apart in the source
Procedure: as §1
The affinities of AB-H64 and its variants (Table 5) for human CD33 were measured by Fortebio assay according to the method described in Example 1 above.

human CD33 [12] = target: T2, human CD33; experiment: ligand-blocking red blood cell solid adhesion assay: antibody pre-incubated on plate-bound CD33-Fc, then binding of red blood cells (sialic acid-containing CD33 ligands) read as peroxidase activity (TMB, 450 nm), relative to no antibody; blocked ligand: CD33 ligands on red blood cells
Procedure: The affinity matured antibody, AB-64.1 and two of its variants, AB-64.1.2 and AB-64.1.8, were evaluated for their ability to compete with CD33 ligand for binding to CD33 using a red blood cell (RBC) solid adhesion assay, according to standard protocols (Kelm, et al. Current Biology, 1994). Red blood cells are highly decorated with glycoproteins containing sialic acids; therefore the ability of an antibody to block RBC binding to immobilized CD33 was used to determine ligand interference. Briefly, 96-well Immunolon plates were coated overnight with 5 μg/mL CD33-Fc, then were washed with PBS and blocked for one hour with binding buffer (PBS containing 0.25% BSA and 1 mM CaCl₂)). CD33 antibodies were added and incubated for one hour at room temperature with gentle rocking. After removal of unbound antibody, RBCs were added to each well at 3.0×10⁶ cells/mL and incubated at room temperature for one hour. Unbound RBCs were then carefully removed by washing three times with PBS, after which water was added to each well to induce hypotonic lysis of bound RBCs. The plate was transferred to −80° C. for 10 minutes, followed by 37° C. for 15 minutes. Quantification of bound RBCs was measured as peroxidase activity by adding TMB, followed by the addition of 2N sulfuric acid to stop the reaction. Signal was detected at 450 nm. Data was calculated as a percentage of RBC binding to plate-bound CD33-Fc in the absence of antibody.

human CD33 [13] = target: T2, human CD33; experiment: BLI (ForteBio), Fab 100 nM on immobilized CD33; remark: listed apart in the source
Procedure: as §1
The affinity parameters of two of the antibodies, 64.1.2 and 64.1.8, were measured in a separate experiment by BIAcore, where they were directly compared to the parental antibody, AB-64.1, the parental humanized antibody, AB-H64, and the Chimeric Ab.

[14] = target: T1, human CD33 on primary human …; experiment: cell-based or functional assay; remark: listed apart in the source
[15] = target: T1, human CD33 on primary human …; experiment: cell-based or functional assay; remark: listed apart in the source
human CD33 [16] = target: T2, human CD33; experiment: BLI (ForteBio), Fab 100 nM on immobilized CD33; kon/koff columns printed 3 rows too low, assigned by koff/kon = printed KD of AB-63.6
Procedure: as §1, §2

human CD33 [17] = target: T2, human CD33; experiment: BLI (ForteBio), Fab 100 nM on immobilized CD33; kon/koff columns printed 3 rows too low, assigned by koff/kon = printed KD of AB-63.5
Procedure: as §1, §2

T1 sequence (P20138 18-364): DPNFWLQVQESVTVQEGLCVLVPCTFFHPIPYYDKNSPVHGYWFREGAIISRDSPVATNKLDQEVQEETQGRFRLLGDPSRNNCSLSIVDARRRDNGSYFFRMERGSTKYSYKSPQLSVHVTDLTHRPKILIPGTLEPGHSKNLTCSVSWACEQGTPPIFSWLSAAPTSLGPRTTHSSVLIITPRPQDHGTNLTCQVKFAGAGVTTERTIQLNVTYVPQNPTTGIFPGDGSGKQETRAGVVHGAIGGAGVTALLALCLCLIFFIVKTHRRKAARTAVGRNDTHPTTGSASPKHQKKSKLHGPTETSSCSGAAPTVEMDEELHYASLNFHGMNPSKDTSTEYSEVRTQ
T2 sequence (P20138 18-259 limits assumed): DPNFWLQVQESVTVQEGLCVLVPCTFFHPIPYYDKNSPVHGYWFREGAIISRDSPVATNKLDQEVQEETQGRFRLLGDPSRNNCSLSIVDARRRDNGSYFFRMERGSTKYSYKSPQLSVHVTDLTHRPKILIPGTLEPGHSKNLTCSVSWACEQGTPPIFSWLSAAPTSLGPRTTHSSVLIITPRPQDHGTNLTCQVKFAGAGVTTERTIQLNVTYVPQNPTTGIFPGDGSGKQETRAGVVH

Binder	Maximal Downregulation (% CD33 remaining) [1]	Receptor downregulation (EC50) [1]	Fold affinity improvement over parental Ab (AB-H63) (human CD33 [2])	Kd (human CD33 [2])	Maximal Downregulation (% CD33 remaining) [6]	Receptor downregulation (EC50) [6]	Fold Change to Chimeric Ab (human CD33 [9])	Kd (human CD33 [9])	koff (human CD33 [9])	kon (human CD33 [9])	EC50 (human CD33 [12])	Kd (human CD33 [13])	Fold Change to AB-H64 (human CD33 [9])	Receptor downregulation (% remaining at 0.16 µg/mL antibody) [14]	other results
B1	17.6%	0.0691 nM	3.79 fold	0.718 nM											koff (human CD33 [3]): 0.000581 s⁻¹; kon (human CD33 [3]): 809000 M⁻¹ s⁻¹
B2					22.4%	0.029 nM	0.76 fold	2.15 nM	0.00221 s⁻¹	1.03e+06 M⁻¹ s⁻¹					Fold Change to Chimeric Ab (human CD33 [4]): 0.76 fold; Kd (human CD33 [4]): 2.15 nM; koff (human CD33 [4]): 0.00221 s⁻¹; kon (human CD33 [4]): 1.03e+06 M⁻¹ s⁻¹; Maximal Downregulation (% CD33 remaining) [5]: 22.4%; Receptor downregulation (EC50) [5]: 0.029 nM; Receptor downregulation (EC50) [7]: 0.0137 nM; Receptor downregulation (EC50) [8]: 0.0366 nM; Kd (human CD33 [10]): 4.08 nM; Kd (human CD33 [11]): 2.86 nM
B3					27.3%	0.0154 nM	15.4 fold	0.105 nM	0.000485 s⁻¹	4.61e+06 M⁻¹ s⁻¹	0.71 nM	0.499 nM	20.4 fold	37.2%	Receptor downregulation (EC50) [8]: 0.0185 nM; Fold affinity improvement over parental Ab (AB-H64) (human CD33 [11]): 3.23 fold; Kd (human CD33 [11]): 0.885 nM
B4					24.8%	0.0189 nM	8.8 fold	0.185 nM	0.000507 s⁻¹	2.74e+06 M⁻¹ s⁻¹	0.55 nM	0.902 nM	11.6 fold	32.4%	fold increase in potency in decreasing cell surface CD33, against AB-H64 [15]: 1.5 fold; fold increase in potency in decreasing cell surface CD33, against Chimeric Ab [15]: 4.6 fold
B5	17.1%	0.0463 nM	8.96 fold	0.304 nM											koff (human CD33 [16]): 0.0002 s⁻¹; kon (human CD33 [16]): 658000 M⁻¹ s⁻¹
B6					30.1%	0.0282 nM	9.29 fold	0.175 nM	0.000634 s⁻¹	3.62e+06 M⁻¹ s⁻¹	0.62 nM	0.802 nM	12.3 fold	32.7%	
B7	16.5%	0.0401 nM	4.4 fold	0.619 nM											koff (human CD33 [17]): 0.000524 s⁻¹; kon (human CD33 [17]): 847000 M⁻¹ s⁻¹
B8					24.1%	0.0869 nM		1.63 nM	0.00162 s⁻¹	995000 M⁻¹ s⁻¹					Kd (human CD33 [4]): 1.63 nM; koff (human CD33 [4]): 0.00162 s⁻¹; kon (human CD33 [4]): 995000 M⁻¹ s⁻¹; Maximal Downregulation (% CD33 remaining) [5]: 24.1%; Receptor downregulation (EC50) [5]: 0.0869 nM; Receptor downregulation (EC50) [7]: 0.0743 nM; Kd (human CD33 [10]): 5.22 nM
